From patent publication US20110281938, “APTAMERS TO TISSUE FACTOR PATHWAY INHIBITOR AND THEIR USE AS BLEEDING DISORDER THERAPEUTICS” (Baxter Healthcare S.A., published 2011)

How the values were obtained:
Details in all cases: tags: American Diagnostica 4500PC/4900PC, E. coli expressed
[1] = target: T1, TFPI (tissue factor pathway inhibitor, full-length) (Homo sapiens, UniProt P10646 SEQ:1-276); assay: competition; meets binding-competition criterion
Procedure: (§1) The substituted ARC17480 molecules were assayed for binding and function. The assays used for this evaluation were the calibrated automated thrombogram (CAT) assay, a dot-blot binding-competition assay and a FXa activity assay. The results of these assays are summarized in Table 40 and depicted in FIG. 147. A mutation was considered tolerated for activity if it met the criteria of at least two of the three assays that were carried out. Mutations that are tolerated (“yes”) and not tolerated (“no”) are identified in Table 40. The experimental details and the criteria used for each assay are described in the following paragraphs. The molecules described in this example were first tested in the CAT assay and the dot-blot binding-competition assay. In most cases, molecules were only tested in the FXa assay if there was a discrepancy between the results in the CAT assay and the dot-blot binding-competition assay.
(§2) Each molecule was evaluated for binding to tissue factor pathway inhibitor (TFPI) in a binding-competition assay. For these experiments, 10 nM human TFPI (American Diagnostica, Stamford, Conn., catalog #4900PC) was incubated with trace amounts of radiolabeled ARC17480 and 5000 nM, 1666.67 nM, 555.56 nM, 185.19 nM, 61.73 nM, 20.58 nM, 6.86 nM, 2.29 nM, 0.76 nM or 0.25 nM of unlabeled competitor aptamer. ARC17480 was included as a competitor in every experiment as a control. For each molecule, the percentage of radiolabeled ARC17480 bound at each competitor aptamer concentration was used for analysis. The percentage of radiolabeled ARC17480 bound was plotted as a function of aptamer concentration and fit to the equation y=(max/(1+x/IC₅₀))+int, where y=the percentage of radiolabeled ARC17480 bound, x=the concentration of aptamer, max=the maximum radiolabeled ARC17480 bound, and int=the y-intercept, to generate an IC₅₀ value for binding-competition. The IC₅₀ of each aptamer was compared to the IC₅₀ of ARC17480 that was evaluated in the same experiment. A mutation was considered tolerated in the binding-competition assay if the IC₅₀ of that molecule was not more than 5-fold greater than that of ARC17480 evaluated in the same experiment. Tolerated mutations are indicated in Table 40 as meeting the assay criteria (“yes”) or not meeting the assay criteria (“no”).

[2] = target: T1, TFPI (tissue factor pathway inhibitor, …); assay: competition; dot-blot; FXa assay criterion not met
Procedure: (§3) Each molecule was evaluated for binding to tissue factor pathway inhibitor (TFPI) in a binding-competition assay. For these experiments, 10 nM human TFPI (American Diagnostica, Stamford, Conn., catalog #4500PC) was incubated with trace amounts of radiolabeled ARC17480 and 5000 nM, 1666.67 nM, 555.56 nM, 185.19 nM, 61.73 nM, 20.58 nM, 6.86 nM, 2.29 nM, 0.76 nM or 0.25 nM of unlabeled competitor aptamer. ARC17480 was included as a competitor in every experiment as a control. For each molecule, the percentage of radiolabeled ARC17480 bound at each competitor aptamer concentration was used for analysis. The percentage of radiolabeled ARC17480 bound was plotted as a function of aptamer concentration and fit to the equation y=(max/(1+x/IC₅₀))+int, where y=the percentage of radiolabeled ARC17480 bound, x=the concentration of aptamer, max=the maximum radiolabeled ARC17480 bound, and int=the y-intercept, to generate an IC₅₀ value for binding-competition. The IC₅₀ of each aptamer was compared to the IC₅₀ of ARC17480 that was evaluated in the same experiment. A substitution was considered tolerated in the binding-competition assay if the IC₅₀ of that molecule was not more than 5-fold greater than that of ARC17480 evaluated in the same experiment. Tolerated substitutions are indicated in Table 37 as meeting the assay criteria (“yes”) or not meeting the assay criteria (“no”).

[3] = target: T1, TFPI (tissue factor pathway inhibitor, …); assay: competition; dot-blot; CAT criterion not met
Procedure: as §1, §2

[4] = target: T1, TFPI (tissue factor pathway inhibitor, …); assay: competition; dot-blot
Procedure: as §1, §2

[5] = target: T1, TFPI (tissue factor pathway inhibitor, …); assay: competition; dot-blot; CAT and FXa criteria not met
Procedure: as §3

[6] = target: T1, TFPI (tissue factor pathway inhibitor, …); assay: competition; meets binding-competition criterion; CAT and FXa no
Procedure: as §1
Each molecule was evaluated for binding to tissue factor pathway inhibitor (TFPI) in a binding-competition assay. For these experiments, 10 nM human TFPI (American Diagnostica, Stamford, Conn., catalog #4900PC) was incubated with trace amounts of radiolabeled ARC17480 and 5000 nM, 1666.67 nM, 555.56 nM, 185.19 nM, 61.73 nM, 20.58 nM, 6.86 nM, 2.29 nM, 0.76 nM or 0.25 nM of unlabeled competitor aptamer. ARC17480 was included as a competitor in every experiment as a control. For each molecule, the percentage of radiolabeled ARC17480 bound at each competitor aptamer concentration was used for analysis. […] The IC₅₀ of each aptamer was compared to the IC₅₀ of ARC17480 that was evaluated in the same experiment. A mutation was considered tolerated in the binding-competition assay if the IC₅₀ of that molecule was not more than 5-fold greater than that of ARC17480 evaluated in the same experiment. […]

T1 sequence (P10646 29-304): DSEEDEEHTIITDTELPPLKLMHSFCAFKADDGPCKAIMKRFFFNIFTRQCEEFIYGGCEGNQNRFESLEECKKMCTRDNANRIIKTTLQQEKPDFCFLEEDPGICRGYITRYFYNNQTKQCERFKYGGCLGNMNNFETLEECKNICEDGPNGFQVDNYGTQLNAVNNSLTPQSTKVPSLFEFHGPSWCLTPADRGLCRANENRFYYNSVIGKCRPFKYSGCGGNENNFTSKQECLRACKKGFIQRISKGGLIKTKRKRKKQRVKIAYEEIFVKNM

B1: ARC33178 (mixed)
RNA: GGAAUAUACUUGGCUCGUUAGGUGCGUAUUUA
modifications: 2'-OMe A/G/U, 2'-deoxy C, 3' idT
For B1, the binding signal [1] was ≤ 5 fold IC50 of ARC17480.

B2: ARC18541 (XNA)
RNA: GGAAUAUACUUGGCUCGUUAGGUGCGUAUAUA
modifications: 2'-OMe except dC9, dC14, dC16; 2'-OMe C25; 3' idT
With B2 the binding signal [2] was no more than 5 fold IC50 vs ARC17480.

B3: ARC34871 (XNA)
RNA: GGAAUAUCCUUGGCUCGUUAGGUGCGUAUAUA
modifications: 2'-OMe except dC9, dC14, dC16, dC25; 3' idT
B3 gave a binding signal [3] greater than 5 fold IC50 vs ARC17480.

B4: ARC34857 (XNA)
RNA: CGAAUAUACUUGGCUCGUUAGGUGCGUAUAUA
modifications: 2'-OMe except dC9, dC14, dC16, dC25; 3' idT
B4 was tested, and the binding signal [4] was no more than 5 fold IC50 vs ARC17480.

B5: ARC19462 (XNA)
mixed: GGAAUAUACUUGGCUCGTUAGGUGCGUAUAUA
modifications: 2'-OMe except dC9, dC14, dC16, dC25 and dT18; 3' idT
Work on B5 yielded a binding signal [5] of no more than 5 fold IC50 vs ARC17480.

B6: ARC18540 (XNA)
RNA: GGAAUAUACUUGGCUCGUUAGGUGCGUAUAUA
modifications: 2'-OMe except dC9, dC14, dC25; 2'-OMe C16; 3' idT
B6 was tested, and the binding signal [2] was no more than 5 fold IC50 vs ARC17480.

B7: ARC19456 (XNA)
mixed: GGAAUAUACTUGGCUCGUUAGGUGCGUAUAUA
modifications: 2'-OMe except dC9, dC14, dC16, dC25 and dT10; 3' idT
B7 gave a binding signal [5] of no more than 5 fold IC50 vs ARC17480.

B8: ARC34870 (XNA)
RNA: GGAAUAUGCUUGGCUCGUUAGGUGCGUAUAUA
modifications: 2'-OMe except dC9, dC14, dC16, dC25; 3' idT
B8 gave a binding signal [3] of no more than 5 fold IC50 vs ARC17480.

B9: ARC34863 (XNA)
RNA: GGACUAUACUUGGCUCGUUAGGUGCGUAUAUA
modifications: 2'-OMe except dC9, dC14, dC16, dC25; 3' idT
Work on B9 yielded a binding signal [4] of no more than 5 fold IC50 vs ARC17480.

B10: ARC34862 (XNA)
RNA: GGAGUAUACUUGGCUCGUUAGGUGCGUAUAUA
modifications: 2'-OMe except dC9, dC14, dC16, dC25; 3' idT
In the case of B10, the binding signal [4] is reported as no more than 5 fold IC50 vs ARC17480.

B11: ARC33152 (mixed)
RNA: GGAUUAUACUUGGCUCGUUAGGUGCGUAUAUA
modifications: 2'-OMe A/G/U, 2'-deoxy C, 3' idT
With B11 the binding signal [1] was ≤ 5 fold IC50 of ARC17480.

B12: ARC33158 (mixed)
RNA: GGAAUAUACCUGGCUCGUUAGGUGCGUAUAUA
modifications: 2'-OMe A/G/U and mC10, other C 2'-deoxy, 3' idT
For B12, the binding signal [1] was ≤ 5 fold IC50 of ARC17480.

B13: ARC33153 (mixed)
RNA: GGAACAUACUUGGCUCGUUAGGUGCGUAUAUA
modifications: 2'-OMe A/G/U and mC5, other C 2'-deoxy, 3' idT
With B13 the binding signal [1] was ≤ 5 fold IC50 of ARC17480.

B14: ARC34866 (XNA)
RNA: GGAAUGUACUUGGCUCGUUAGGUGCGUAUAUA
modifications: 2'-OMe except dC9, dC14, dC16, dC25; 3' idT
B14 gave a binding signal [4] of no more than 5 fold IC50 vs ARC17480.

B15: ARC33162 (mixed)
mixed: GGAAUAUACUUGGTUCGUUAGGUGCGUAUAUA
modifications: 2'-OMe A/G/U, dT14, 2'-deoxy C, 3' idT
With B15 the binding signal [6] was ≤ 5 fold IC50 of ARC17480.

B16: ARC18545 (XNA)
RNA: GGAAUAUACUUGGCUCGUUAGGUGCGUAUAUA
modifications: 2'-OMe except dC9, dC25; 2'-OMe C14 and C16; 3' idT
In the case of B16, the binding signal [2] is reported as no more than 5 fold IC50 vs ARC17480.

B17: ARC33155 (mixed)
RNA: GGAAUACACUUGGCUCGUUAGGUGCGUAUAUA
modifications: 2'-OMe A/G/U and mC7, other C 2'-deoxy, 3' idT
B17 was tested, and the binding signal [6] was ≤ 5 fold IC50 of ARC17480.
